Test system: MS2 coat protein
Assay: apparent KD of MS2 coat protein; designed switch direction (-1 OFF switch, 1 ON switch): -1; higher = weaker reporter binding
Procedure, shortened: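 An oligonucleotide input, 200 uM small-molecule ligand, or no input was present during titration of SNAP-549-labelled MS2 coat protein, which was doubled from 0.7 or 1.5 nM to 3 µM. Designed RNA switches had been transcribed on Illumina chips by stalled E. coli RNA polymerase. Apparent KD per design is the median over clusters of curves fitted to normalised cluster fluorescence.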

[1] = Eterna round: R95, input ligand: microRNA oligo, concentration not stated
[2] = Eterna round: R95, input ligand: FMN 200 uM
[3] = Eterna round: R95, input ligand: none
[4] = input ligand: microRNA oligo, concentration not stated

Row | Sequence | apparent KD of MS2 coat protein [1] [nM] | apparent KD of MS2 coat protein [2] [nM] | apparent KD of MS2 coat protein [3] [nM] | apparent KD of MS2 coat protein (input ligand: FMN 200 uM) [nM] | apparent KD of MS2 coat protein (input ligand: none) [nM] | apparent KD of MS2 coat protein [4] [nM]
1 | GAUACACAUGAGGAUCACCCAUGUGAGGAUAUGAUACUAUGUACUUCGGUACAUAGUAUCAGAAGGCACAUUGA [Ex1-3: 44] (puzzle: Exclusion 1) | 61.2 |  |  |  |  | 
2 | GAUACCCAAGUCAGGAUAUCGGGAUACGAAAGUCACGAGAAGGGACAUGAGGAUCACCCAUGUAAAUAAAUAAA [Arege] (puzzle: Brourd's mod of Exclusion 4) | 31.1 | 62.7 | 33.2 |  |  | 
3 | GAUAGACAUGAGGAUCACCCAUGUGAGGAUAUGCGUACGUUGUCAGUAGGCGACGUGCGCAGAAGGCGCAAGUU [Mat - Mod of JL D91] (puzzle: Exclusion 1) | 61.8 |  |  |  |  | 
4 | GAUAGGACGUGGUCAGGUAACAUGAGGAUCACCCAUGUAGGUCUAGGAACAAGCUUUUUGAAAGCUCGUCUUAUAAA [JR_SV3TOV1_Sub056] (puzzle: Sensor v3, turn-off variant 1) | 18.9 | 17.4 | 21.2 |  |  | 
5 | GAUAUGUAAGGAUAUCUAGAAACGAGCGCAGGCUCAAGAAAAGAGAAGGUACAUGAGGAUCACCCAUGUUCCUG [EX4 A.13] (Eterna round: R97, puzzle: Exclusion 4) |  |  |  | 21.1 | 17.9 | 
6 | GAUCAACAUGAGGAUCACCCAUGUGAGGAUAUGAUACUAUGUACUUCGGUACAUAGUAUCAGAAGGCAUAUUGA [Ex1-3: 41] (puzzle: Exclusion 1) | 50.7 |  |  |  |  | 
7 | GAUCAGCUUGUGAGGAUAUCCGGGCAUAAAGGCUAGGAGAAGGUACAUGAGGAUCACCCAUGUAGAGUCCUGGG [Bisoraxe] (puzzle: Brourd's mod of Exclusion 4) | 41.2 |  |  |  |  | 
8 | GAUCAUGCAGGAUAUACAUGGAACAUGAAAUCAUGAAUUUCACAUGAGGAUCACCCAUGUAGAAGGGCAUGAUC [Omei Ex2 A15] (Eterna round: R97, puzzle: Exclusion 2) |  |  |  | 23.1 | 24.9 | 
9 | GAUCUACAUGAGGAUCACCCAUGUAAGGAUAUCUACAUUGAAGCCUCGGCUUCAAUGUAGAGAAGGUACAAUUA [E1/10-B2] (Eterna round: R97, puzzle: Exclusion 1) |  |  |  | 31.5 | 32.4 | 
10 | GAUCUACAUGAGGAUCACCCAUGUAAGGAUAUUGAGUACUCGAAUGGAGAGCAAGGAUCAAGAAGGUGCAAUAU [Eternabot (L1) Solution 79] (Eterna round: R97, puzzle: Exclusion 1) |  |  |  | 18.8 | 23.1 | 
11 | GAUGUUCUGGUCAGGAUAUGCAUCCGUCGGCCGGAGCAGAAGGGACAUGAGGAUCACCCAUGUGCGGGUACAAA [Onvegeor] (puzzle: Brourd's mod of Exclusion 4) | 38.4 |  |  |  |  | 
12 | GAUUAACAUGAGGAUCACCCAUGUGAGGAUAUGAACUUGCCCACUUACCAGAUAAAGUUUAGAAGGCGCAUUCU [1986#35] (Eterna round: R97, puzzle: Exclusion 1) |  |  |  | 47.3 | 30.4 | 
13 | GAUUAGACUAAGGAUAUUACGAGCUCUGUGCCGUGAGAAGGUAGCACAUGAGGAUCACCCAUGUGACCAUCAUG [Eternabot (L2) Solution 81] (Eterna round: R97, puzzle: Exclusion 6) |  |  |  | 180 | 58.6 | 
14 | GAUUAUGCGAGCUUUAGGGACAUGAGGAUCACCCAUGUUCGUCUUAUUAGUCUAGGUACACUGACAUACCUAAAUCU [JMF 67] (puzzle: Sensor v3, turn-off variant 1) | 33.1 | 22.7 | 23.6 |  |  | 
15 | GCAAGCUUUUGCUCGGCUUACAUGAGGAUCACCCAUGUGGGCCCGGGCCCGGGCCCGCCGGGCCCGGGCCCGGGCCC [-58.5, -80.7, A 10%] (Eterna round: R97, puzzle: Sensor, turn-off variant 1) |  |  |  | 24.4 | 25.4 | 
16 | GCAAGCUUUUGCUCGUCUUACAUGAGGAUCACCCAUGUCGGGUGAUUGCUUCGUGCCCGGGCCCGCCGGGCCCGGGC [-41.5, -70.8 kcal, A 12%] (Eterna round: R97, puzzle: Sensor, turn-off variant 1) |  |  |  | 76.9 | 97.8 | 
17 | GCACGAAGUGUAGGAUAUCUGUGCGAUUAGCUCAGAGAAGGACACAUGAGGAUCACCCAUGUGUUCCAAUACCCAAAUACGUGC [Eli exng1 - 061] (Eterna round: R96, puzzle: Exclusion NG 1) |  |  |  | 11 | 11.3 | 7.69
18 | GCACGACAUCAGGAUAUGACUAGCUGCGGCUAGUCAGAAGGGAUGACAUGAGGAUCACCCAUGUGAUCACGUGC [E6/2-B3] (Eterna round: R97, puzzle: Exclusion 6) |  |  |  | 114 | 85.3 | 
19 | GCACGGAGUGUAGGAUAUCUGUGCGAUUAGCUCAGAGAAGGACACAUGAGGAUCACCCAUGUGUUCCACGGAAACGAACCGUGC [Eli exng1 - 052] (Eterna round: R96, puzzle: Exclusion NG 1) |  |  |  | 11.8 | 13.4 | 10.2
20 | GCACGGAUGGUAGGAUAUCUGUGCGAUUAGCUCAGAGAAGGACCACAUGAGGAUCACCCAUGUACCUCAAUUAGCUUUCCGUGC [Eli exng1 - 020] (Eterna round: R96, puzzle: Exclusion NG 1) |  |  |  | 40.7 | 15.2 | 11
21 | GCACGGUUGGUAGGAUAUCCUUGCGAUUAGCAAGGAGAAGGACCACAUGAGGAUCACCCAUGUACCUCAAUAAUCCUUCCGUGC [Eli exng1 - 027] (Eterna round: R96, puzzle: Exclusion NG 1) |  |  |  | 12.8 | 14.7 | 12.1
22 | GCACUGACAGGAUAUACAUGAGGAUCACCCAUGUGACCCUUAAAGUACUCGCGUACAAGUAGAAGGGUCUGUGC [Omei Ex3 Model Bachelor's Dilema v30] (Eterna round: R97, puzzle: Exclusion 3) |  |  |  | 398 | 66.7 | 
23 | GCAGCAACUCUAAUCAAUCAAACAUGAGGAUCACCCAUGUCUCAGGAUAUGGUCUGGAUUACAGGCCAGAAGGGAGAAAGCUGC [Eli exng3 - 045] (Eterna round: R96, puzzle: Exclusion NG 3) |  |  |  | 14.3 | 16.1 | 11.1
24 | GCAGCAUAGAUAACAGUCUGAUACAUGAGGAUCACCCAUGUACAGGAUAUGGUCUGGAUUACAGGCCAGAAGGGUACAAGCUGC [Eli exng3 - 014] (Eterna round: R96, puzzle: Exclusion NG 3) |  |  |  | 10.9 | 12.7 | 9.69
25 | GCAGCUAACACAGAUAUGUGGACAUGAGGAUCACCCAUGUCACAGGAUAUGGACUGGAUUACAGUCCAGAAGGGUGAAUGCUGC [Zipper Style 5] (Eterna round: R96, puzzle: Exclusion NG 3) |  |  |  | 8.25 | 14.2 | 10.8
26 | GCAGGAUAAGUCAGGAUAUACCUAUGGAUACAUAGGUAGAAGGGACAUGAGGAUCACCCAUGUGCCUCGCCUGC [Fiskers BMX 4 - 72] (puzzle: Brourd's mod of Exclusion 4) | 12.4 |  |  |  |  | 

From the supplement of paper PMC9170038
